From patent US20220017622A1 (Pfizer, published 2022)

T1: human B7-H4 on cells (human, UniProt Q7Z7D3 25-282)
T1 sequence (looked up): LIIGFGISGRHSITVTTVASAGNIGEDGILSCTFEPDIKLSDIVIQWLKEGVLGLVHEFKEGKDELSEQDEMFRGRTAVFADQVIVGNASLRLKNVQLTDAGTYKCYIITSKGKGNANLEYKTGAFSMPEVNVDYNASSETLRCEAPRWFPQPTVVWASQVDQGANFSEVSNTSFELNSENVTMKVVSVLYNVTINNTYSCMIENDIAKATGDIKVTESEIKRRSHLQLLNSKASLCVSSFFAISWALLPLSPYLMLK

B1: B7-H4xCD3 bispecific antibody 1135 (bispecific antibody, IgG2)
heavy 1: EVQLVESGGGLVQPGGSLRLSCAASGGSFSGYYWNWVRQAPGKGLEWIGEINHSGSATYNPSLKSRVTISVDTAKNSLYLQMNSLRAEDTAVYYCARGLYNWNVDHWGQGTLVTVSSASTKGPSVFPLAPCSRSTSESTAALGCLVKDYFPEPVTVSWNSGALTSGVHTFPAVLQSSGLYSLSSVVTVPSSNFGTQTYTCNVDHKPSNTKVDKTVERKCEVECPECPAPPVAGPSVFLFPPKPKDTLMISRTPEVTCVVVAVSHEDPEVQFNWYVDGVEVHNAKTKPREEQFNSTFRVVSVLTVVHQDWLNGKEYKCKVSNKGLPSSIEKTISKTKGQPREPQVYTLPPSREEMTKNQVSLTCEVKGFYPSDIAVEWESNGQPENNYKTTPPMLDSDGSFFLYSKLTVDKSRWQQGNVFSCSVMHEALHNHYTQKSLSLSPG
light 1: DIQMTQSPSSLSASVGDRVTITCRASQGIRNDLGWYQQKPGKAPKRLIYAASSLQSGVPSRFSGSGSGTDFTLTISSLQPEDFATYYCLQHNAYPRTFGGGTKVEIKRTVAAPSVFIFPPSDEQLKSGTASVVCLLNNFYPREAKVQWKVDNALQSGNSQESVTEQDSKDSTYSLSSTLTLSKADYEKHKVYACEVTHQGLSSPVTKSFNRGEC
heavy 2: EVQLVESGGGLVQPGGSLRLSCAASGFTFSDYYMTWVRQAPGKGLEWVAFIRNQARGYTSDHNPSVKGRFTISRDNAKNSLYLQMNSLRAEDTAVYYCARDRPSYYVLDYWGQGTTVTVSSASTKGPSVFPLAPCSRSTSESTAALGCLVKDYFPEPVTVSWNSGALTSGVHTFPAVLQSSGLYSLSSVVTVPSSNFGTQTYTCNVDHKPSNTKVDKTVERKCRVRCPRCPAPPVAGPSVFLFPPKPKDTLMISRTPEVTCVVVAVSHEDPEVQFNWYVDGVEVHNAKTKPREEQFNSTFRVVSVLTVVHQDWLNGKEYKCKVSNKGLPSSIEKTISKTKGQPREPQVYTLPPSREEMTKNQVSLTCLVKGFYPSDIAVEWESNGQPENNYKTTPPMLDSDGSFFLYSRLTVDKSRWQQGNVFSCSVMHEALHNHYTQKSLSLSPGK
light 2: DIQMTQSPSSLSASVGDRVTITCTSSQSLFNVRSQKNYLAWYQQKPGKAPKLLIYWASTRESGVPSRFSGSGSGTDFTLTISSLQPEDFATYYCKQSYDLFTFGGGTKVEIKRTVAAPSVFIFPPSDEQLKSGTASVVCLLNNFYPREAKVQWKVDNALQSGNSQESVTEQDSKDSTYSLSSTLTLSKADYEKHKVYACEVTHQGLSSPVTKSFNRGEC
B2: B7-H4xCD3 bispecific antibody 0974 (bispecific antibody, IgG2)
heavy 1: EVQLVESGGGLVQPGGSLRLSCAASGGSFSGYYWNWIRQPPGKGLEWIGEIDHQGSTKYNPSLKSRVTISVDTAKNSLYLQMNSLRAEDTAVYYCARGLYNWNVDHWGQGTLVTVSSASTKGPSVFPLAPCSRSTSESTAALGCLVKDYFPEPVTVSWNSGALTSGVHTFPAVLQSSGLYSLSSVVTVPSSNFGTQTYTCNVDHKPSNTKVDKTVERKCEVECPECPAPPVAGPSVFLFPPKPKDTLMISRTPEVTCVVVAVSHEDPEVQFNWYVDGVEVHNAKTKPREEQFNSTFRVVSVLTVVHQDWLNGKEYKCKVSNKGLPSSIEKTISKTKGQPREPQVYTLPPSREEMTKNQVSLTCEVKGFYPSDIAVEWESNGQPENNYKTTPPMLDSDGSFFLYSKLTVDKSRWQQGNVFSCSVMHEALHNHYTQKSLSLSPG
light 1: DIQMTQSPSSLSASVGDRVTITCRASQGIRNDLGWYQQKPGKAPKRLIYAASSLQSGVPSRFSGSGSGTDFTLTISSLQPEDFATYYCLQHNAYPRTFGGGTKVEIKRTVAAPSVFIFPPSDEQLKSGTASVVCLLNNFYPREAKVQWKVDNALQSGNSQESVTEQDSKDSTYSLSSTLTLSKADYEKHKVYACEVTHQGLSSPVTKSFNRGEC
heavy 2: EVQLVESGGGLVQPGGSLRLSCAASGFTFSDYYMTWVRQAPGKGLEWVAFIRNQARGYTSDHNPSVKGRFTISRDNAKNSLYLQMNSLRAEDTAVYYCARDRPSYYVLDYWGQGTTVTVSSASTKGPSVFPLAPCSRSTSESTAALGCLVKDYFPEPVTVSWNSGALTSGVHTFPAVLQSSGLYSLSSVVTVPSSNFGTQTYTCNVDHKPSNTKVDKTVERKCRVRCPRCPAPPVAGPSVFLFPPKPKDTLMISRTPEVTCVVVAVSHEDPEVQFNWYVDGVEVHNAKTKPREEQFNSTFRVVSVLTVVHQDWLNGKEYKCKVSNKGLPSSIEKTISKTKGQPREPQVYTLPPSREEMTKNQVSLTCLVKGFYPSDIAVEWESNGQPENNYKTTPPMLDSDGSFFLYSRLTVDKSRWQQGNVFSCSVMHEALHNHYTQKSLSLSPGK
light 2: DIQMTQSPSSLSASVGDRVTITCTSSQSLFNVRSQKNYLAWYQQKPGKAPKLLIYWASTRESGVPSRFSGSGSGTDFTLTISSLQPEDFATYYCKQSYDLFTFGGGTKVEIKRTVAAPSVFIFPPSDEQLKSGTASVVCLLNNFYPREAKVQWKVDNALQSGNSQESVTEQDSKDSTYSLSSTLTLSKADYEKHKVYACEVTHQGLSSPVTKSFNRGEC
B3: B7-H4xCD3 bispecific antibody 0976 (bispecific antibody, IgG2)
heavy 1: EVQLVESGGGLVQPGGSLRLSCAVSGGSFSGYYWNWIRQPPGKGLEWIGEIDHQGSTKYNPSLKSRVTISVDTAKNSLYLQMNSLRAEDTAVYYCARELYNWNVDHWGQGTLVTVSSASTKGPSVFPLAPCSRSTSESTAALGCLVKDYFPEPVTVSWNSGALTSGVHTFPAVLQSSGLYSLSSVVTVPSSNFGTQTYTCNVDHKPSNTKVDKTVERKCEVECPECPAPPVAGPSVFLFPPKPKDTLMISRTPEVTCVVVAVSHEDPEVQFNWYVDGVEVHNAKTKPREEQFNSTFRVVSVLTVVHQDWLNGKEYKCKVSNKGLPSSIEKTISKTKGQPREPQVYTLPPSREEMTKNQVSLTCEVKGFYPSDIAVEWESNGQPENNYKTTPPMLDSDGSFFLYSKLTVDKSRWQQGNVFSCSVMHEALHNHYTQKSLSLSPG
light 1: DIQMTQSPSSLSASVGDRVTITCRASQGIRNDLGWYQQKPGKAPKRLIYAASSLQSGVPSRFSGSGSGTDFTLTISSLQPEDFATYYCLQHNAYPRTFGGGTKVEIKRTVAAPSVFIFPPSDEQLKSGTASVVCLLNNFYPREAKVQWKVDNALQSGNSQESVTEQDSKDSTYSLSSTLTLSKADYEKHKVYACEVTHQGLSSPVTKSFNRGEC
heavy 2: EVQLVESGGGLVQPGGSLRLSCAASGFTFSDYYMTWVRQAPGKGLEWVAFIRNQARGYTSDHNPSVKGRFTISRDNAKNSLYLQMNSLRAEDTAVYYCARDRPSYYVLDYWGQGTTVTVSSASTKGPSVFPLAPCSRSTSESTAALGCLVKDYFPEPVTVSWNSGALTSGVHTFPAVLQSSGLYSLSSVVTVPSSNFGTQTYTCNVDHKPSNTKVDKTVERKCRVRCPRCPAPPVAGPSVFLFPPKPKDTLMISRTPEVTCVVVAVSHEDPEVQFNWYVDGVEVHNAKTKPREEQFNSTFRVVSVLTVVHQDWLNGKEYKCKVSNKGLPSSIEKTISKTKGQPREPQVYTLPPSREEMTKNQVSLTCLVKGFYPSDIAVEWESNGQPENNYKTTPPMLDSDGSFFLYSRLTVDKSRWQQGNVFSCSVMHEALHNHYTQKSLSLSPGK
light 2: DIQMTQSPSSLSASVGDRVTITCTSSQSLFNVRSQKNYLAWYQQKPGKAPKLLIYWASTRESGVPSRFSGSGSGTDFTLTISSLQPEDFATYYCKQSYDLFTFGGGTKVEIKRTVAAPSVFIFPPSDEQLKSGTASVVCLLNNFYPREAKVQWKVDNALQSGNSQESVTEQDSKDSTYSLSSTLTLSKADYEKHKVYACEVTHQGLSSPVTKSFNRGEC
B4: B7-H4xCD3 bispecific antibody 1166 (bispecific antibody, IgG2)
heavy 1: EVQLLESGGGLVQPGGSLRLSCAASGFTFSSYAMSWVRQAPGKGLEWVSAISGGGGSTYYADSVKGRFTISRDNSKNTLYLQMNSLRAEDTAVYYCARDIQWYGESTLFDYWGQGTLVTVSSASTKGPSVFPLAPCSRSTSESTAALGCLVKDYFPEPVTVSWNSGALTSGVHTFPAVLQSSGLYSLSSVVTVPSSNFGTQTYTCNVDHKPSNTKVDKTVERKCEVECPECPAPPVAGPSVFLFPPKPKDTLMISRTPEVTCVVVAVSHEDPEVQFNWYVDGVEVHNAKTKPREEQFNSTFRVVSVLTVVHQDWLNGKEYKCKVSNKGLPSSIEKTISKTKGQPREPQVYTLPPSREEMTKNQVSLTCEVKGFYPSDIAVEWESNGQPENNYKTTPPMLDSDGSFFLYSKLTVDKSRWQQGNVFSCSVMHEALHNHYTQKSLSLSPG
light 1: DIQMTQSPSSLSASVGDRVTITCRASQSTRSWLAWYQQKPGKAPKLLIYKASSLEGGVPSRFSGSGSGTDFTLTISSLQPEDFATYYCQQYGSYSRTFGQGTKVEIKRTVAAPSVFIFPPSDEQLKSGTASVVCLLNNFYPREAKVQWKVDNALQSGNSQESVTEQDSKDSTYSLSSTLTLSKADYEKHKVYACEVTHQGLSSPVTKSFNRGEC
heavy 2: EVQLVESGGGLVQPGGSLRLSCAASGFTFSDYYMTWVRQAPGKGLEWVAFIRNQARGYTSDHNPSVKGRFTISRDNAKNSLYLQMNSLRAEDTAVYYCARDRPSYYVLDYWGQGTTVTVSSASTKGPSVFPLAPCSRSTSESTAALGCLVKDYFPEPVTVSWNSGALTSGVHTFPAVLQSSGLYSLSSVVTVPSSNFGTQTYTCNVDHKPSNTKVDKTVERKCRVRCPRCPAPPVAGPSVFLFPPKPKDTLMISRTPEVTCVVVAVSHEDPEVQFNWYVDGVEVHNAKTKPREEQFNSTFRVVSVLTVVHQDWLNGKEYKCKVSNKGLPSSIEKTISKTKGQPREPQVYTLPPSREEMTKNQVSLTCLVKGFYPSDIAVEWESNGQPENNYKTTPPMLDSDGSFFLYSRLTVDKSRWQQGNVFSCSVMHEALHNHYTQKSLSLSPGK
light 2: DIQMTQSPSSLSASVGDRVTITCTSSQSLFNVRSQKNYLAWYQQKPGKAPKLLIYWASTRESGVPSRFSGSGSGTDFTLTISSLQPEDFATYYCKQSYDLFTFGGGTKVEIKRTVAAPSVFIFPPSDEQLKSGTASVVCLLNNFYPREAKVQWKVDNALQSGNSQESVTEQDSKDSTYSLSSTLTLSKADYEKHKVYACEVTHQGLSSPVTKSFNRGEC
Wherever T cell mediated tumor cell killing, OVCAR3-Luc is given: unit not given here.

What follows are binders tested against T1, human B7-H4 on cells (assay: cell-based or functional assay).
B1 was tested, and the “T cell mediated tumor cell killing EC50, HCC1954-Luc” value was 1.2 µM and the “T cell mediated tumor cell killing, OVCAR3-Luc” value was 420. With B2 the “T cell mediated tumor cell killing EC50, HCC1954-Luc” value was 0.764 µM. For B3, the “T cell mediated tumor cell killing EC50, HCC1954-Luc” value was 2.17 µM. With B4 the “T cell mediated tumor cell killing EC50, HCC1954-Luc” value was 15.5 µM and the “T cell mediated tumor cell killing, OVCAR3-Luc” value was 800.
